Source: patent publication US20250171549A1 (Amgen, published 2025)
Where no end group is shown, it is not given here.

B1: Antibody 1 IgG2 (antibody)
heavy: EVQLVESGGGLVKPGGSLRLSCAASGFTFSNARMGWVRQAPGKGLEWVGRIKSKTEGGTRDYAAPVKGRFTISRDDSKNTLYLQMNSLKTEDTAVYYCTSYSGVWGQGTMVTVSSASTKGPSVFPLAPCSRSTSESTAALGCLVKDYFPEPVTVSWNSGALTSGVHTFPAVLQSSGLYSLSSVVTVPSSNFGTQTYTCNVDHKPSNTKVDKTVERKCCVECPPCPAPPVAGPSVFLFPPKPKDTLMISRTPEVTCVVVDVSHEDPEVQFNWYVDGVEVHNAKTKPREEQFNSTFRVVSVLTVVHQDWLNGKEYKCKVSNKGLPAPIEKTISKTKGQPREPQVYTLPPSREEMTKNQVSLTCLVKGFYPSDIAVEWESNGQPENNYKTTPPMLDSDGSFFLYSKLTVDKSRWQQGNVFSCSVMHEALHNHYTQKSLSLSPGK
light: not shown
notes: IgG2; tested as hybridoma supernatant
B2: Antibody 2 IgG2 (antibody, V domains shown)
VH: QVQLVESGGGVVQPGRSLRLSCAASGFTFSNYGMHWVRQAPGKGLEWVAVISYDGSNKFYADSVKGRFTISRDNSKKTLYLQMSSLRVEDTAVYYCARAGGIGRFDYWGQGTLVTVSS
VL: DFVMTQTPLSLSVTPGQPASISCKYSQSLLHSDGKTYLFWYLQKPGQPPHLLIYEVSNRFSGVPDRFSGSGSGTDFTLKISRVEAEDVGLYYCMQTLKLPLTFGGGTKVEINR
notes: as for B1

Experiments:
[1] = biological target: T1, Peptide 1 (biotinylated N-terminus CCR8 peptide, amino acids 1-12) (human, also: biotinylated, position not given here); assay: flow cytometry, biotinylated peptide on streptavidin beads, antibody 5 ug/mL
T1 construct: Captured on streptavidin polystyrene beads
T1 peptide: MDYTLDLSVTTV
Experimental: (§1) The biotinylated human CCR8 peptides were captured on streptavidin polystyrene beads (Spherotech) in FACS buffer (PBS+2% Fetal Bovine Serum) at a final protein concentration of 50-100 ng/ml and incubated for 30 minutes at room temperature. Beads were washed twice with FACS buffer to remove unbound protein, centrifuged to pellet the beads, and resuspended and pooled together in StabilGuard (SurModics). The pooled biotinylated human CCR8 coated beads were added to hybridoma supernatant samples in a 96-well plate, such that the final antibody concentration was 5.0 μg/mL, and then incubated for one hour at room temperature.
(§2) Plates were washed twice with FACS buffer, centrifuged to pellet the beads, and supernatant was removed and resuspended in FACS buffer to remove unbound antibodies. Alexa Fluor 488 goat anti-human or rat IgG (Fcγ fragment specific) secondary antibodies (Jackson ImmunoResearch) made up in FACS buffer at 5.0 μg/mL were added to each well, resuspended with beads and incubated for 15 minutes at room temperature. Plates were washed twice with FACS buffer, centrifuged to pellet the beads, and supernatant was removed and resuspended in FACS buffer to remove unbound secondary antibodies. Samples were then resuspended in FACS buffer and read on either IntelliCyt® iQue Flow Cytometer. […]

[2] = biological target: T2, Peptide 3 (biotinylated N-terminus CCR8 peptide, amino acids 13-24) (human, also: biotinylated, position not given here); assay: flow cytometry, biotinylated peptide on streptavidin beads
T2 construct: Captured on streptavidin polystyrene beads
T2 peptide: TDYYYPDIFSSP
Experimental: as §1
(§3) Plates were washed twice with FACS buffer, centrifuged to pellet the beads, and supernatant was removed and resuspended in FACS buffer to remove unbound antibodies. Alexa Fluor 488 goat anti-human or rat IgG (Fcγ fragment specific) secondary antibodies (Jackson ImmunoResearch) made up in FACS buffer at 5.0 μg/mL were added to each well, resuspended with beads and incubated for 15 minutes at room temperature. Plates were washed twice with FACS buffer, centrifuged to pellet the beads, and supernatant was removed and resuspended in FACS buffer to remove unbound secondary antibodies. Samples were then resuspended in FACS buffer and read on either IntelliCyt® iQue Flow Cytometer.
(§4) Data are represented as a ratio of geometric mean binding to beads coated with specific peptide divided by geometric mean of binding to a bead coated with a negative control peptide (peptide with unrelated sequence). A value above two represents presence of binding.

[3] = biological target: T3, human CCR8 with an A27G point mutation (human, UniProt P51685 1-355); assay: flow cytometry, HEK293T transfectants, supernatant 5 ug/mL
T3 construct: Transiently expressed on HEK293T; also called Human CCR8 [A27G]; humanCCR8[A27G]
From the text: (§5) Transfected cells were used to assess an antibody's binding specificity using flow cytometry on host Human Embryonic Kidney (HEK) 293T cells. Proteins were expressed on HEK 293T cells by transfection using human CCR8 (SEQ ID NO: 21), human CCR8 with an A27G point mutation (SEQ ID NO: 23), murine CCR8 (SEQ ID NO: 24), rat CCR8 (SEQ ID NO: 25), human CCR4 (SEQ ID NO: 26), or control expression vectors, Gibco™ Opti-MEM® media (Gibco), and 293Fectin™ reagent (Invitrogen) according to the manufacturer's instructions. Human T-cell lymphoma (HuT78) cell lines were also used to determine specificity to endogenously expressed CCR8.
(§6) Transfected HEK293T cells (24 hours after transfection) or HuT78 cells were resuspended in FACS buffer (PBS+2% Fetal Bovine Serum) and added to a 96-well plate. Hybridoma supernatant samples containing control antibodies 433H (BD Biosciences) or L263G8 (BioLegend), Antibody 1 IgG2, or Antibody 2 IgG2 were added at a final concentration of 5.0 μg/mL, cells were resuspended and incubated for 1 hour at 4° C. Plates were washed twice with FACS buffer, centrifuged to pellet the cells, and supernatant was removed and resuspended in FACS buffer to remove unbound antibodies.
(§7) Alexa Fluor 647 goat anti-human or rat IgG (Fcγ fragment specific) secondary antibodies (Jackson ImmunoResearch) made up in FACS buffer at 5.0 μg/mL were added to each well, and cells were resuspended and incubated for 15 minutes at 4° C. Plates were washed twice with FACS buffer, centrifuged to pellet the cells, and supernatant was removed and resuspended in FACS buffer to remove unbound secondary antibodies. Samples were resuspended in FACS buffer and read on either IntelliCyt® iQue or BD Accuri™ Flow Cytometer with an Intellicyt HyperCyt autosampler.

murine CCR8 = biological target: T4, murine CCR8 (murine, UniProt P56484 1-353); assay: as above
T4 construct: Transiently expressed on HEK293T; also called Mouse CCR8; mCCR8
T4 sequence: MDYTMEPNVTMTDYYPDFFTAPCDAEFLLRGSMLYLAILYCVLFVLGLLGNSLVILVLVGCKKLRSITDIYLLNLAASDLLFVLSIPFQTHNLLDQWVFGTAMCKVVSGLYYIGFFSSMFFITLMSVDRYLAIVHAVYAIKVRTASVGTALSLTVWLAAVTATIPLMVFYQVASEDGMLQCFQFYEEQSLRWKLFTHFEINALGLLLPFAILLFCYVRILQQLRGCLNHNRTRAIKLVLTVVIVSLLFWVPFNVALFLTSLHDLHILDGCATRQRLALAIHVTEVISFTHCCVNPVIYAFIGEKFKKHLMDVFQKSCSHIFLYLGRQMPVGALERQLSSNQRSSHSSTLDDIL
From the text: as §5, §6, §7

rat CCR8 = biological target: T5, rat CCR8 (rat, UniProt P56484 1-353 (mouse entry)); assay: as above
T5 construct: Transiently expressed on HEK293T
T5 chain: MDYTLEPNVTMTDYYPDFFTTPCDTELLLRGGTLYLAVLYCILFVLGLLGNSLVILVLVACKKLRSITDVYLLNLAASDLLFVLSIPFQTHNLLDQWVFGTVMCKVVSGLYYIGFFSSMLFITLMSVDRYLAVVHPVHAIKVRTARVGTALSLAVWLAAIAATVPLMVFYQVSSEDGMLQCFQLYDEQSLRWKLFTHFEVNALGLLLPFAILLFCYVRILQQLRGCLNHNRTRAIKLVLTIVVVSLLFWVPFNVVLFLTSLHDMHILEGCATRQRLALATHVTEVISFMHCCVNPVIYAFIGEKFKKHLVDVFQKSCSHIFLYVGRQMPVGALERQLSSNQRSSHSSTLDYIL
From the text: as §5, §6, §7

[4] = biological target: T2, Peptide 3 (biotinylated N-terminus CCR8 …); assay: flow cytometry, biotinylated peptide on streptavidin beads, antibody 5 ug/mL
Experimental: as §1, §2

[5] = biological target: T1, Peptide 1 (biotinylated N-terminus CCR8 …); assay: flow cytometry, biotinylated peptide on streptavidin beads
Experimental: as §1, §3, §4

T3 sequence (P51685 whole entry A27G): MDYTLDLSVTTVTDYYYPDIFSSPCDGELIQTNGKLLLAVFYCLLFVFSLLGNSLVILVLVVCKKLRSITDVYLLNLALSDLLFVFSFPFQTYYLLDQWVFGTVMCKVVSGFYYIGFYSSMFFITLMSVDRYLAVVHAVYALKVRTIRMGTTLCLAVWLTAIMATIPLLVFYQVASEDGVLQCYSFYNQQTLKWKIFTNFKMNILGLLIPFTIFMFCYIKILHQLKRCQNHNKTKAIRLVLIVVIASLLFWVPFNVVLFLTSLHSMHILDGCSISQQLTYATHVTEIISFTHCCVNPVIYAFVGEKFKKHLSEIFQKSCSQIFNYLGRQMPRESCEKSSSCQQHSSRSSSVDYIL

Binder | ratio of geometric mean, peptide bead / negative control peptide bead [1] | binding result [2] | binding by FACS (read-out not named) [3] | binding by FACS (read-out not named) (murine CCR8) | binding by FACS (read-out not named) (rat CCR8) | ratio of geometric mean, peptide bead / negative control peptide bead [4] | binding result [5]
B1 | 3 | no binding | 36900 | 24700 | 105000 | – | –
B2 | – | – | 24200 | 3600 | 11000 | 157 | no binding
